# Results: paper doi:10.1101/2021.10.20.465124v1
# B1: His6-BglC (Streptomyces scabiei 87.22) (protein)
# chain: MPEPVNPATPVTFPPAFLWGAATSAYQIEGAVREDGRTPSIWDTFSHTPGKTAGGENGDIAVDHYHRYRDDVAMMADLGLNAYRFSVSWSRVQPTGRGPAVQKGLDFYRRLVDELLAKGIKPAVTLYHWDLPQELEDAGGWPERDIVHRFAEYARIMGEALGDRVEQWITLNEPWCTAFLGYGSGVHAPGRTDPVASLRAAHHLNVAHGLGVSALRSAMPARNSIAVSLNSSVVRPITSSPEDRAAARKIDDLANGVFHGPMLHGAYPETLFAATSSLTDWSFVRDGDVATAHQPLDALGLNYYTPALVGAADAGLEGPRADGHGASEHSPWPAADDVLFHQTPGERTEMGWTIDPTGLHELIMRYAREAPGLPMYVTENGAAYDDKMDADGRVHDPERIAYLHGHLRAVRRAIAEGADVRGYYLWSLMDNFEWAYGYGKRFGAVYVDYATLTRTPKSSAHWYGQAAKTGALPPLAPAPA
# Substrate: COc1cc2ccc(=O)oc2cc1O[C@@H]1O[C@H](CO)[C@@H](O)[C@H](O)[C@H]1O
# Experiment: glucose release, D-Glucose HK assay, substrate inhibition fit
# Assay type: biochemical, Streptomyces scabiei
# Settings: HEPES 50 mM pH 7.5, 40 °C, 4 min, substrate inhibition model
protein,measurement,value
B1,Km,300 µM
same,kcat,9.4 s⁻¹
